Biological target: human CLDN18.2 expressed on cells (human)
Test: cell-based or functional assay

- ADCC on KATOIII CLDN18.2 cells, LDH: EC50 (nM), run A: 0.12 nM
- ADCC on KATOIII CLDN18.2 cells, LDH: EC50 (nM), run B: 0.22 nM
- ADCC on KATOIII CLDN18.2 cells, LDH: EC50 (nM), run C: 0.27 nM
- ADCC on NCI-N87 CLDN18.2 cells, LDH: EC50 (nM), run A: 0.057 nM
- ADCC on NCI-N87 CLDN18.2 cells, LDH: EC50 (nM), run B: 0.082 nM
- ADCC on NCI-N87 CLDN18.2 cells, LDH: EC50 (nM), run C: 0.1 nM
- CDC on CT26 CLDN18.2 cells, LDH: EC50 (nM), run A: 11.5 nM
- CDC on CT26 CLDN18.2 cells, LDH: EC50 (nM), run B: 10.7 nM
- CDC on CT26 CLDN18.2 cells, LDH: EC50 (nM), run C: 11.9 nM
- CDC on KATOIII CLDN18.2 cells, LDH: EC50 (nM), run A: 38.1 nM
- CDC on KATOIII CLDN18.2 cells, LDH: EC50 (nM), run B: 22.7 nM
- CDC on KATOIII CLDN18.2 cells, LDH: EC50 (nM), run C: 27.5 nM
B1: reference mAb (IMAB362, Ganymed) (antibody, INN chains, looked up, V domains shown)
VH: QVQLQQPGAELVRPGASVKLSCKASGYTFTSYWINWVKQRPGQGLEWIGNIYPSDSYTNYNQKFKDKATLTVDKSSSTAYMQLSSPTSEDSAVYYCTRSWRGNSFDYWGQGTTLTVSS
VL: DIVMTQSPSSLTVTAGEKVTMSCKSSQSLLNSGNQKNYLTWYQQKPGQPPKLLIYWASTRESGVPDRFTGSGSGTDFTLTISSVQAEDLAVYYCQNDYSYPFTFGSGTKLEIKR
- ADCC on KATOIII CLDN18.2 cells, LDH: max (% cytotoxity), run A: 27.9%
- ADCC on KATOIII CLDN18.2 cells, LDH: max (% cytotoxity), run B: 24.5%
- ADCC on KATOIII CLDN18.2 cells, LDH: max (% cytotoxity), run C: 24.5%
- ADCC on NCI-N87 CLDN18.2 cells, LDH: max (% cytotoxity), run A: 26.1%
- ADCC on NCI-N87 CLDN18.2 cells, LDH: max (% cytotoxity), run B: 22.1%
- ADCC on NCI-N87 CLDN18.2 cells, LDH: max (% cytotoxity), run C: 21.1%
- CDC on CT26 CLDN18.2 cells, LDH: max (% cytotoxity), run A: 72.5%
- CDC on CT26 CLDN18.2 cells, LDH: max (% cytotoxity), run B: 54.7%
- CDC on CT26 CLDN18.2 cells, LDH: max (% cytotoxity), run C: 51.6%
- CDC on KATOIII CLDN18.2 cells, LDH: max (% cytotoxity), run A: 29.7%
- CDC on KATOIII CLDN18.2 cells, LDH: max (% cytotoxity), run B: 46%
- CDC on KATOIII CLDN18.2 cells, LDH: max (% cytotoxity), run C: 34.9%

From patent US20250263482A1
